Publication PMC8985508
pIC50, pKd: −log10 of the molar value.

Target: trastuzumab
Experiment: fluorescence polarisation

| pKd | pIC50 | Substance |
| --- | --- | --- |
| 7.85 | – | Fc-III labeled with fluorescein (Fc-III-FAM) (peptide) |
| – | 7.24 | Fc-III peptide (wild-type Fc-III) |
| – | 7.04 | NH2-PEG20-Fc-III (peptide) |
